Measured values reported in patent US20220144890.

Legend:
[1] = target: H2 peptide derived from MAP1LC3B
[2] = target: H2 peptide derived from MAP1LC3C
[3] = target: H2 peptide derived from GBR
[4] = target: T1, H2 α-helical peptide derived from GBRL2 (GABARAPL2 alpha-helix 2 domain)
T1 chain: VAQFMWIIRKR

B1: recombinant ATG4B (protein)
chain: MDAATLTYDTLRFAEFEDFPETSEPVWILGRKYSIFTEKDEILSDVASRLWFTYRKNFPAIGGTGPTSDTGWGCMLRCGQMIFAQALVCRHLGRDWRWTQRKRQPDSYFSVLNAFIDRKDSYYSIHQIAQMGVGEGKSIGQWYGPNTVAQVLKKLAVFDTWSSLAVHIAMDNTVVMEEIRRLCRTSVPCAGATAFPADSDRHCNGFPAGAEVTNRPSPWRPLVLLIPLRLGLTDINEAYVETLKHCFMMPQSLGVIGGKPNSAHYFIGYVGEELIYLDPHTTQPAVEPTDGCFIPDESFHCQHPPCRMSIAELDPSIAVGFFCKTEDDFNDWCQQVKKLSLLGGALPMFELVELQPSHLACPDVLNLSLDSSDVERLERFFDSEDEDFEILSL
ATG4B cleavage of chimeric Myc-GBRL2-S-tag substrate (blot) [1]: inhibited ATG4B cleavage activity in dose dependent manner, while H2 peptides derived from MAP1LC3B and GBRL2 had the strongest inhibition on ATG4B
ATG4B cleavage of chimeric Myc-GBRL2-S-tag substrate (blot) [2]: inhibited ATG4B cleavage activity in dose dependent manner
ATG4B cleavage of chimeric Myc-GBRL2-S-tag substrate (blot) [3]: inhibited ATG4B cleavage activity in dose dependent manner
ATG4B cleavage of chimeric Myc-GBRL2-S-tag substrate (blot) [4]: inhibited ATG4B cleavage activity in dose dependent manner, while H2 peptides derived from MAP1LC3B and GBRL2 had the strongest inhibition on ATG4B
